Measurements published in patent US9758785B2, “miR-520 microRNAs sensitize cancers to platinum-based therapy” (BAYLOR COLLEGE OF MEDICINE, priority 2012, dated 2017).
Entries after “also recorded” stand apart in the source; their conditions may differ.

Legend:
Type in all cases: cell-based, human
OVCAR8 cells = experiment: Viability (MTS) across cisplatin concentrations, stable microRNA clones; conditions: OVCAR8 stable clones vs non-silencing mimic, cisplatin <5 μg/mL
Method: (§1) Established ovarian cancer cell lines were obtained from the ATCC (OVCAR8, OVCAR5) and the University of Texas M.D. Anderson Cancer Center (HEYA8, SKOV3ip1). All cell lines were maintained at 37° C. in RPMI 1640 media (Invitrogen, Carlsbad, Calif.) supplemented with 10% fetal bovine serums (Hyclone, Logan, Utah) and 1% penicillin/streptomycin (Gibco, Carlsbad, Calif.). MicroRNA mimics and mimic controls (Dharmacon, Lafayette, Colo.) were transiently transfected into actively growing cultures using Lipofectamine 2000 (Invitrogen, Carlsbad, Calif.). After a 24-hour incubation, transfected cultures were washed, passaged and seeded into 96 well plates. Proliferation and apoptosis were measured at 72, 96 and 120 hours after transfection using standard assays (Cell Titer 96 Aqueous One; Caspase Glo 3/7; Promega, Madison, Wis.). pLemiR expression vectors (Open Biosystems/Thermo, Huntsville, Ala.) were prepared according to manufacturer's instructions and transfected into cells using Fugene 6 (Roche, Indianapolis, Ind.). Following transfection, stable clones were selected using puromycin (Invitrogen) at doses optimized for each line. Rates of proliferation and apoptosis were examined in stable transfectants 24, 48, 72 and 96 hours after selected cells had been passaged and dispensed into 96 well plates. Viability was assessed across a clinically relevant range of cisplatin concentrations using an MTS assay (Promega). Cisplatin was obtained from Teva Pharmaceuticals (Irvine, Calif.).
(§2) For this reason, the inventors created clones of OVCAR8 and SKOV3ip1 ovarian cancer cell lines stably expressing either miR-520h (n=3) and miR-520a (n=3). […] To assess the impact of these microRNAs on cisplatin-induced cell killing, the inventors examined the viability of OVCAR8 and SKOV3ip1 cells stably expressing either microRNA incubated with clinically relevant concentrations of cisplatin. […] It should be noted that SKOV3ip1 cells tolerated only very low levels of miR-520a expression. The impact of cisplatin treatment on rates of apoptosis differed dramatically between the two cell lines.

SKOV3ip1 cells = experiment: as above; conditions: SKOV3ip1 stable clones vs non-silencing mimic
Method: as §1, §2

HEY cells = experiment: Proliferation assay; conditions: mimic transfection
Method: as §1

HEYA8 cells = experiment: Proliferation assay; conditions: HEYA8, acute mimic transfection
Method: as §1

OVCAR5 = experiment: Proliferation assay; conditions: OVCAR5, mimic transfection
Method: as §1

ATM = experiment: Western blot of ATM in OVCAR8 cells; conditions: for ATM degradation / cleavage product (ΔATM): OVCAR8, increasing concentrations of cisplatin; for ATM protein expression: OVCAR8 stably expressing the microRNA vs non-silencing control or empty vector
Method: (§3) Whole cell lysates equivalent to 30 μg of protein were resolved on 4-12% gradient SDS-PAGE. Resolved proteins were transferred onto PVDF membranes using the iBlot system (Invitrogen). Rabbit polyclonal and/or mouse monoclonal antibodies specifically recognizing ATM, phospo-ATM (Ser1981) CHK1 phospho-CHK1 (Ser216), p21, phospo-CHK2 ([…]), BCL2, XIAP, CDC25A were obtained from Cell Signaling Technologies (Danvers, Mass.). A rabbit polyclonal antibody recognizing FANCD2 was also purchased from Abcam (Cambridge, Mass.). Protein expression was visualized using species-specific, horseradish peroxidase-conjugated secondary antibody (Cell Signaling) and ECL Plus chemiluminescent substrate (Amersham, Buckinghamshire, UK).

CDC25c [1] = experiment: Western blot of CDC25c in OVCAR8 cells; conditions: OVCAR8, particularly when exposed to cisplatin; listed as miR-520g/h
Method: as §3

BRCA1 = experiment: qPCR gene response to cisplatin in OVCAR8 cells; conditions: OVCAR8 stable clones vs non-silencing control
Method: (§4) Total RNA was extracted from cell pellets using the mirVana miRNA extraction kit (Ambion, Austin, Tex.) according to the manufacturer's instructions. Levels of microRNA expression were examined using Mature MicroRNA Taqman assays (Applied Biosystems, Foster City, Calif.) using U6 as a control. For all gene expression assays, cDNA was prepared using qScript cDNA supermix (Quanta Biosciences, Gaithersburg, Md.). TaqMan gene expression assays (Applied Biosystems) were used to measure expression of specific target genes according to the manufacturer's instructions. All reactions were performed in triplicate using OneStepPlus real time PCR system (Applied Biosystems). All qPCR results are reported using the ΔΔCT method (17).

CASP7 = experiment: qPCR gene response to cisplatin in OVCAR8 cells; conditions: OVCAR8 stable clones vs non-silencing control
Method: as §4

CDC25c [2] = experiment: qPCR gene response to cisplatin in OVCAR8 cells; conditions: OVCAR8 stable clones vs non-silencing control
Method: as §4

CHK1 = experiment: qPCR gene response to cisplatin in OVCAR8 cells; conditions: OVCAR8 stable clones vs non-silencing control
Method: as §4

CHK2 = experiment: qPCR gene response to cisplatin in OVCAR8 cells; conditions: OVCAR8 stable clones vs non-silencing control
Method: as §4

SVOK3ip1 cells = experiment: Spheroid formation; conditions: cells stably expressing mimics

B1: hsa-mir-520h MI0003175 (nucleic acid, listed as Homo sapiens)
chain: UCCCAUGCUGUGACCCUCUAGAGGAAGCACUUUCUGUUUGUUGUCUGAGAAAAAACAAAGUGCUUCCCUUUAGAGUUACUGUUUGGGA
modifications: expressed or natural sequence
notes: synthetic mimic or stably expressed from pLemiR vector; written miR-520g/h interchangeably
Sensitization to cisplatin (viability) (OVCAR8 cells): significantly sensitized
Sensitization to cisplatin (viability) (OVCAR8 cells; listed as miR-520g/h): sensitized
Sensitization to cisplatin (viability) (SKOV3ip1 cells): significantly sensitized
Sensitization to cisplatin (viability) (SKOV3ip1 cells; listed as miR-520g/h): appeared to sensitize
Proliferation (HEY cells): no impact
Proliferation (HEYA8 cells): no significant impact
Proliferation (OVCAR5): no impact
ATM degradation / cleavage product (ΔATM) (ATM): induced both the phosphorylation and degradation
ATM degradation / cleavage product (ΔATM) (ATM; listed as MiR-520h): promotes a proteolytic degradation
ATM degradation / cleavage product (ΔATM) (ATM; listed as miR-520g/h): increased levels
Phosphorylated ATM level (ATM; OVCAR8 stably expressing the microRNA): decreased levels
ATM protein expression (ATM): decreased levels
ATM protein expression (ATM; listed as Mir-520g/h): markedly reduced
ATM protein expression (ATM; listed as miR-520g/h): significantly less
CDC25c and phospho-CDC25c protein level (CDC25c [1]): much lower; also recorded: decreased levels
BRCA1 expression response to cisplatin (BRCA1): blunts the responses
BRCA1 expression response to cisplatin (BRCA1; listed as miR-520g/h): significantly less
Caspase 7 expression response to cisplatin (CASP7): targeted; also recorded: blunts the responses
Caspase 7 expression response to cisplatin (CASP7; listed as miR-520g/h): significantly less
CDC25C expression response to cisplatin (CDC25c [2]): blunts the responses
CHK1 expression response to cisplatin (CHK1): inhibited; also recorded: blunts the responses
CHK2 expression response to cisplatin (CHK2): blunts the responses
Capacity to form spheroids (SVOK3ip1 cells): decreased capacity to form spheroids
